Assay [1] addresses fibronectin (UniProt P02751). The assay is described as follows: SPR; Biacore 3000; fibronectin on a CM5 chip; 0-500 nM untagged OspC variants injected at 10 μl/min, 25°C; 1:1 Langmuir model; KD from the average koff divided by kon of each run.
The target in assay [2] is fibronectin (UniProt P02751). Description: ELISA; wells coated with 10 μg/ml purified fibronectin in 0.05 M Na2CO3 pH 9.0; 0.03125-2 μM GST or GST-tagged OspC variants, 1 hr at ambient temperature; goat anti-GST and HRP-conjugated anti-goat IgG; estimated KD from a fit of OD405.
fibronectin, sequence (P02751 32-2477): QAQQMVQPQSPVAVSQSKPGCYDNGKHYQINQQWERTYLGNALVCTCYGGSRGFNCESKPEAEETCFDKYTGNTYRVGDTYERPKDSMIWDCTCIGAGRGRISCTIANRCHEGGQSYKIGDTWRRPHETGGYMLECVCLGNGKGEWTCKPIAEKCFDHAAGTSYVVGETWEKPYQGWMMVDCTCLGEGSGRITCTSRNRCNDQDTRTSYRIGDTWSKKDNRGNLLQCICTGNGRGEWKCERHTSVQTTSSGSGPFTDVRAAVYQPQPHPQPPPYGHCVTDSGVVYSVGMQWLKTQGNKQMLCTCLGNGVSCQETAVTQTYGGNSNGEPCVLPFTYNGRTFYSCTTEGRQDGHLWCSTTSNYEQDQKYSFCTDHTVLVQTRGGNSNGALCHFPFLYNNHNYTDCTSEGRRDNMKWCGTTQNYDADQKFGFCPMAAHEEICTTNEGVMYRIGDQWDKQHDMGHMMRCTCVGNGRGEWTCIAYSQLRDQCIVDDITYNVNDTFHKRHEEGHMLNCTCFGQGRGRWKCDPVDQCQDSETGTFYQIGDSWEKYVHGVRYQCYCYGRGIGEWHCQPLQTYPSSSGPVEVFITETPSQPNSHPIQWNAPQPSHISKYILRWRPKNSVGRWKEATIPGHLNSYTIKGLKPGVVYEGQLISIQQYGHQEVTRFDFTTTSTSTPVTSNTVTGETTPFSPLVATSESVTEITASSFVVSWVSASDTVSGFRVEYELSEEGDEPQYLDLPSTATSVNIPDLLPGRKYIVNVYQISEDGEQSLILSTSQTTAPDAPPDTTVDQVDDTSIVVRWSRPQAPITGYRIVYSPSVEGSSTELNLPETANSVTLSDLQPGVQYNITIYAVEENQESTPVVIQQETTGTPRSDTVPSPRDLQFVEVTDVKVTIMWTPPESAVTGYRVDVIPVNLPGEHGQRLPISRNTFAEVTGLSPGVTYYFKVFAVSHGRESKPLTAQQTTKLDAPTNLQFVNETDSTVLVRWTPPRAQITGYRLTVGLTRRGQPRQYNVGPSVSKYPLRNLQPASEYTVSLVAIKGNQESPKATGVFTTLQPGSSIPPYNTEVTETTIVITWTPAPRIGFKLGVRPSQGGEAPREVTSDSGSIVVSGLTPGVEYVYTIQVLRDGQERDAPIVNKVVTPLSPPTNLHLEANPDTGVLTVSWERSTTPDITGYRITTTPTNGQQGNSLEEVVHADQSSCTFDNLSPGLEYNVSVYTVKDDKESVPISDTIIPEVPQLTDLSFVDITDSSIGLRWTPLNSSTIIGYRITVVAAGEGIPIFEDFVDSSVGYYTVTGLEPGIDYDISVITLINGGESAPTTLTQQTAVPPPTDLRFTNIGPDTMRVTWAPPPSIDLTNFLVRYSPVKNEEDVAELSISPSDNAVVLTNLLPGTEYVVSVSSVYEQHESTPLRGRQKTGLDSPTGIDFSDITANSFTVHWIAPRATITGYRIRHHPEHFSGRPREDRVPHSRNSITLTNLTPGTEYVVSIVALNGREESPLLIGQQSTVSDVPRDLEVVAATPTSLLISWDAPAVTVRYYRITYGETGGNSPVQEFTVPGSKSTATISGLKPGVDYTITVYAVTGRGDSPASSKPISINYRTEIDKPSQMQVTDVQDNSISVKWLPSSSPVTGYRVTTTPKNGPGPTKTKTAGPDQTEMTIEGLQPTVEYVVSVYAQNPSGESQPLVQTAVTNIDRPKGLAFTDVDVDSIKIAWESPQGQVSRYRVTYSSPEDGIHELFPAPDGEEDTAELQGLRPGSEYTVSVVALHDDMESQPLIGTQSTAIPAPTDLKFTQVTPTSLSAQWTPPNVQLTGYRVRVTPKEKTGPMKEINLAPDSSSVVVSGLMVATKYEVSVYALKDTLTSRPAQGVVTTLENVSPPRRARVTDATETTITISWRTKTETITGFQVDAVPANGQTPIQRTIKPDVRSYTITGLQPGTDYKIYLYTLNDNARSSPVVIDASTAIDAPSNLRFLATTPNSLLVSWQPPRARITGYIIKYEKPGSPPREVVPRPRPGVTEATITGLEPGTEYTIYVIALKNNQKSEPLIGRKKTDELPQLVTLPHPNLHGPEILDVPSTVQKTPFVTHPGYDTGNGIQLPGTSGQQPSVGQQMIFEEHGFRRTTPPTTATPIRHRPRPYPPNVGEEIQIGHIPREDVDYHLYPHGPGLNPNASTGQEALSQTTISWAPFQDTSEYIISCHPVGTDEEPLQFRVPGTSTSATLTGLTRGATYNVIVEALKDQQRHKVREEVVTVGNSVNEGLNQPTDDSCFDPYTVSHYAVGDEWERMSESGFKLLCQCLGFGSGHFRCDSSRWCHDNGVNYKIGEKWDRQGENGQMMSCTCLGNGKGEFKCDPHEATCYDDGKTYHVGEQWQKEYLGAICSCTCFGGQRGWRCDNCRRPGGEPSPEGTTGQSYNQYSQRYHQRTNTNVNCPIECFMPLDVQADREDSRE

In the assay with fibronectin [1], OspC297, untagged (natural protein) gave a Kd of 1750 nM, a koff of 0.06 s⁻¹ and a kon of 36800 M⁻¹ s⁻¹.

On to “GST-OspC_(N40-D10/E9) (natural protein; other documents disagree on this pair)”, for which, in the assay with fibronectin [2], the Kd is 350 nM.

Source of the values: article PMC7255614.
